Measurements published in PMC3114845, “Bordetella pertussis Autotransporter Vag8 Binds Human C1 Esterase Inhibitor and Confers Serum Resistance” (PLoS ONE, 2011).

Molecular target: T1, histidine-tagged Vag8 passenger domain (residues Val40 to Leu610) (Bordetella pertussis, UniProt Q79GN7 40-610)
T1 construct: autotransporter Vag8, Bordetella pertussis BP338 (Tohama I derivative), predicted passenger domain, residues Val40 to Leu610; Cloned with BamHI and HindIII into pET30b; also called purified Vag8 passenger; recombinant Vag8
T1 sequence: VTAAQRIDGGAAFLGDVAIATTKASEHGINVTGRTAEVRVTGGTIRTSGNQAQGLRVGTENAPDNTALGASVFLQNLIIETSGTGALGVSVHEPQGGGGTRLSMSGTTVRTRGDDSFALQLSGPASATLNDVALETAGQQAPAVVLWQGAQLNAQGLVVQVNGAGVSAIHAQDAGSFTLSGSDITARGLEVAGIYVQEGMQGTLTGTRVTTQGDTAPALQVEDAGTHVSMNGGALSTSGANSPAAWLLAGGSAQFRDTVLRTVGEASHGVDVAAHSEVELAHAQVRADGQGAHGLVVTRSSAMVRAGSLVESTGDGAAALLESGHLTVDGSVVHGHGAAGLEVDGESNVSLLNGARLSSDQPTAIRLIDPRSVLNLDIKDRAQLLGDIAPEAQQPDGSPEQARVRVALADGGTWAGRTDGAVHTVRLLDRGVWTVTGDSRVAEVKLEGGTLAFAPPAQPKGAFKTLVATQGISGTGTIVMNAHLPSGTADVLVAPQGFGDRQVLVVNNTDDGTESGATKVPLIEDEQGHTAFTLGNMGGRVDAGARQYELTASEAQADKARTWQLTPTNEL
Test: ELISA; MaxiSorp plates coated with two-fold dilutions of purified passenger domain (top 5 µg/ml, PBS pH 7.4, overnight 4°C); probed 1 h at room temperature with 10 µg/ml purified human C1inh; detected with goat anti-C1inh
Conditions: both partners purified

B1: purified human C1 esterase inhibitor (natural protein)
chain: NPNATSSSSQDPESLQDRGEGKVATTVISKMLFVEPILEVSSLPTTNSTTNSATKITANTTDEPTTQPTTEPTTQPTIQPTQPTTQLPTDSPTQPTTGSFCPGPVTLCSDLESHSTEAVLGDALVDFSLKLYHAFSAMKKVETNMAFSPFSIASLLTQVLLGAGENTKTNLESILSYPKDFTCVHQALKGFTTKGVTSVSQIFHSPDLAIRDTFVNASRTLYSSSPRVLSNNSDANLELINTWVAKNTNNKISRLLDSLPSDTRLVLLNAIYLSAKWKTTFDPKKTRMEPFHFKNSVIKVPMMNSKKYPVAHFIDQTLKAKVGQLQLSHNLSLVILVPQNLKHRLEDMEQALSPSVFKAIMEKLEMSKFQPTLLTLPRIKVTTSQDMLSIMEKLEFFDFSYDLNLCGLTEDPDLQVSAMQHQTVLELTETGVEAAAASAISVARTLLVFEVQQPFLFVLWDQQHKFPVFMGRVYDPRA
notes: also called C1inh; purified C1inh; source: bought: Advanced Research Technologies (purified human C1inh)
- binding result: binds
